# Source: the RNAGym collection of RNA variant scans (doi:10.7554/elife.80360)
# B1: Hairpin Ribozyme (parent)
# chain: GUCCUCUUUCACGUGCGCGUGAAAGAGAGAAGUGAACCAGAGAAACACACGUUGUGGUAUAUUACCUGGUA
# Variants of: B1
# Test: self-cleavage, relative activity (ratio to wild type); higher = more cleavage; co-transcriptional
row,Variant,self-cleavage
1,GUCCUCUUUCACGUGCGCGUGCAAGCGAGAAGUGAACCAGAGAAACACACGUUGUGGUAUAUUACCUGGUA [A22C A26C],0.528
2,GUCCUCUUUCACGUGCGCGUGGAAGAGAGAAGUGAACCGGAGAAACACACGUUGUGGUAUAUUACCUGGUA [A22G A39G],0.298
3,GUCCUCUUUCACGUGCGCGUGCAAGAGAGAAGUGAACCAGAGAAACACACGUUGUGGUAUAUUAGCUGGUA [A22C C65G],0.116
4,GUCCUCUUUCACGUGCGCGUGCAAGAGAGAAGUGAACCAGAGAAACACACGUUGUGGUAUAUUAUCUGGUA [A22C C65U],0.303
5,GUCCUCUUUCACGUGCGCGUGCAAGAGAGAAGUGAACCAGAGAAACACACGUUGUGGUAUAUUAACUGGUA [A22C C65A],0.64
6,GUCCUCUUUCACGUGCGCGUGGAGGAGAGAAGUGAACCAGAGAAACACACGUUGUGGUAUAUUACCUGGUA [A22G A24G],0.808
7,GUCCUCUUUCACGUGCGCGUGGAUGAGAGAAGUGAACCAGAGAAACACACGUUGUGGUAUAUUACCUGGUA [A22G A24U],1.08
8,GUCCUCUUUCACGUGCGCGUGCAAGAGAGAAGUGAACCAGAGAAACACACGUUUUGGUAUAUUACCUGGUA [A22C G54U],0.514
9,GUCCUCUUUCACGUGCGCGUGCAAGAGAGAAGUGAACCAGAGAAACACACGUUAUGGUAUAUUACCUGGUA [A22C G54A],0.587
10,GUCCUCUUUCACGUGCGCGUGCAAGAGAGAAGUGAACCAGAGAAACACACGUUGUGGUGUAUUACCUGGUA [A22C A59G],0.25
11,GUCCUCUUUCACGUGCGCGUGCAAGAGAGAAGUGAACCAGAGAAACACACGUUGUGGUUUAUUACCUGGUA [A22C A59U],0.104
12,GUCCUCUUUCACGUGCGCGUGCAAGAGAGAAGUGAACCAGAGAAACACACGUUGUGGUCUAUUACCUGGUA [A22C A59C],0.0825
13,GUCCUCUUUCACGUGCGCGUGCAAGAGAGCAGUGAACCAGAGAAACACACGUUGUGGUAUAUUACCUGGUA [A22C A30C],0.16
14,GUCCUCUUUCACGUGCGCGUGGAAGAGAGAAGUGAGCCAGAGAAACACACGUUGUGGUAUAUUACCUGGUA [A22G A36G],0.757
15,GUCCUCUUUCACGUGCGCGUGCAAGAGAGAAGAGAACCAGAGAAACACACGUUGUGGUAUAUUACCUGGUA [A22C U33A],0.0448
16,GUCCUCUUUCACGUGCGCGUGCAAGAGAGAAGCGAACCAGAGAAACACACGUUGUGGUAUAUUACCUGGUA [A22C U33C],0.155
17,GUCCUCUUUCACGUGCGCGUGGAAGAGAGAAGUGUACCAGAGAAACACACGUUGUGGUAUAUUACCUGGUA [A22G A35U],0.715
18,GUCCUCUUUCACGUGCGCGUGGAAGAGAGAAGUGGACCAGAGAAACACACGUUGUGGUAUAUUACCUGGUA [A22G A35G],0.905
19,GUCCUCUUUCACGUGCGCGUGGAAGCGAGAAGUGAACCAGAGAAACACACGUUGUGGUAUAUUACCUGGUA [A22G A26C],0.649
20,GUCCUCUUUCACGUGCGCGUGGUAGAGAGAAGUGAACCAGAGAAACACACGUUGUGGUAUAUUACCUGGUA [A22G A23U],0.59
21,GUCCUCUUUCACGUGCGCGUGGCAGAGAGAAGUGAACCAGAGAAACACACGUUGUGGUAUAUUACCUGGUA [A22G A23C],0.915
22,GUCCUCUUUCACGUGCGCGUGCAGGAGAGAAGUGAACCAGAGAAACACACGUUGUGGUAUAUUACCUGGUA [A22C A24G],0.717
23,GUCCUCUUUCACGUGCGCGUGCAAGAGAGAAGUGAACCAGAGAAACACACGUUGUCGUAUAUUACCUGGUA [A22C G56C],0.243
24,GUCCUCUUUCACGUGCGCGUGCAAGAGAGAAGUGAACCAGAGAAACACACGUUGUUGUAUAUUACCUGGUA [A22C G56U],0.148
25,GUCCUCUUUCACGUGCGCGUGCAAGAGAGAAGUGAACCAGAGAAACACACGUGGUGGUAUAUUACCUGGUA [A22C U53G],0.822
26,GUCCUCUUUCACGUGCGCGUGCAAGAGAGAAGUGAACCAGAGAAACACACGUCGUGGUAUAUUACCUGGUA [A22C U53C],1.03

row,Variant,self-cleavage
1,GUCCUCUUUCACGUGCGCGUGCAAGAGAGAAGUGAACCAGAGAAACACACGUAGUGGUAUAUUACCUGGUA [A22C U53A],0.81
2,GUCCUCUUUCACGUGCGCGUGCAAGAGAGAAGUGAACCAGAGAAACACACGUUGUGGUAUAAUACCUGGUA [A22C U62A],0.128
3,GUCCUCUUUCACGUGCGCGUGCAAGAGAGAAGUGAACCAGAGAAACACACGUUGUGGUAUAGUACCUGGUA [A22C U62G],0.155
4,GUCCUCUUUCACGUGCGCGUGCAAGAAAGAAGUGAACCAGAGAAACACACGUUGUGGUAUAUUACCUGGUA [A22C G27A],0.272
5,GUCCUCUUUCACGUGCGCGUGCAAGAGAGAAGUGAACCAGAGAAACACACGUUGUGGCAUAUUACCUGGUA [A22C U58C],0.94
6,GUCCUCUUUCACGUGCGCGUGCAAGAGAGAAGUGAACCAGAGAAACACAUGUUGUGGUAUAUUACCUGGUA [A22C C50U],0.405
7,GUCCUCUUUCACGUGCGCGUUAAAGAGAGAAGUGAACCAGAGAAACACACGUUGUGGUAUAUUACCUGGCA [G21U U70C],0.687
8,GUCCUCUUUCACGUGCGCGUGCAAGAGAGAAGUGAACCACAGAAACACACGUUGUGGUAUAUUACCUGGUA [A22C G40C],0.123
9,GUCCUCUUUCACGUGCGCGUGGAAGAGAGAAGUGAACCAGCGAAACACACGUUGUGGUAUAUUACCUGGUA [A22G A41C],1.01
10,GUCCUCUUUCACGUGCGCGUGGAAGAGAGAAGUGAACCAGUGAAACACACGUUGUGGUAUAUUACCUGGUA [A22G A41U],0.921
11,GUCCUCUUUCACGUGCGCGUGCAAGAGAGAAGUGAACCAGAGAAACACACGGUGUGGUAUAUUACCUGGUA [A22C U52G],0.726
12,GUCCUCUUUCACGUGCGCGUGCAAGAGAGAAGUGAACCAGAGAAACACACGCUGUGGUAUAUUACCUGGUA [A22C U52C],1.09
13,GUCCUCUUUCACGUGCGCGUGCAAGAGAGAAGUGAACCAGAUAAACACACGUUGUGGUAUAUUACCUGGUA [A22C G42U],0.239
14,GUCCUCUUUCACGUGCGCGUGCAAGAGAGAAGUGAACCAGAAAAACACACGUUGUGGUAUAUUACCUGGUA [A22C G42A],0.146
15,GUCCUCUUUCACGUGCGCGUGCAAGAGAGAAGUGAACCAGAGAAACACACGUUGUGGUAUAUUACCUGGAA [A22C U70A],0.862
16,GUCCUCUUUCACGUGCGCGUGCAAGAGAGAAGUGAACCAGAGAAACACACGUUGUGGUAUAUUACCUGGCA [A22C U70C],0.892
17,GUCCUCUUUCACGUGCGCGUGCAAGAGAGAAGUGAACCAGAGAAAAACACGUUGUGGUAUAUUACCUGGUA [A22C C46A],0.183
18,GUCCUCUUUCACGUGCGCGUGCAAGAGAGAAGUGAACCAGAGAAACACACGUUGUGGUAGAUUACCUGGUA [A22C U60G],0.484
19,GUCCUCUUUCACGUGCGCGUGCAAGAGAGAAGUGAACCAGAGAAACACACGUUGUGGUACAUUACCUGGUA [A22C U60C],1.16
20,GUCCUCUUUCACGUGCGCGUGCAAGAGAGAAGUGAACCAGAGAAACACACGUUGUGGUAAAUUACCUGGUA [A22C U60A],0.664
21,GUCCUCUUUCACGUGCGCGUGCAAGAGAGAAGUGAACCAGAGAAACAGACGUUGUGGUAUAUUACCUGGUA [A22C C48G],0.138
22,GUCCUCUUUCACGUGCGCGUGCAAGAGAGAAGUGAACCAGAGAAACAAACGUUGUGGUAUAUUACCUGGUA [A22C C48A],0.291
23,GUCCUCUUUCACGUGCGCGUGCAAGAGAGAAGUGAACCAGAGAAACAUACGUUGUGGUAUAUUACCUGGUA [A22C C48U],0.235
24,GUCCUCUUUCACGUGCGCGUGCAAGAGAGAAGUGAACCAGAGAAACACACGUUGUGGUAUAUUACCUAGUA [A22C G68A],0.165
25,GUCCUCUUUCACGUGCGCGUGCAAGAGAGAAGUGAACCAGAGAAACACACGUUGUGGUAUAUUACCUUGUA [A22C G68U],0.262
26,GUCCUCUUUCACGUGCGCGUGCAAAAGAGAAGUGAACCAGAGAAACACACGUUGUGGUAUAUUACCUGGUA [A22C G25A],0.247

row,Variant,self-cleavage
1,GUCCUCUUUCACGUGCGCGUGCAAGAGAGAAGUGAACCAGAGCAACACACGUUGUGGUAUAUUACCUGGUA [A22C A43C],0.061
2,GUCCUCUUUCACGUGCGCGUGCAAGAGAGAAGUGAACCAGAGAAACACACGUUGUGGUAUAUGACCUGGUA [A22C U63G],0.109
3,GUCCUCUUUCACGUGCGCGUGGAAGAGAGUAGUGAACCAGAGAAACACACGUUGUGGUAUAUUACCUGGUA [A22G A30U],0.0767
4,GUCCUCUUUCACGUGCGCGUGGAAGAGAGCAGUGAACCAGAGAAACACACGUUGUGGUAUAUUACCUGGUA [A22G A30C],0.182
5,GUCCUCUUUCACGUGCGCGUGGAAGAGAGGAGUGAACCAGAGAAACACACGUUGUGGUAUAUUACCUGGUA [A22G A30G],0.0887
6,GUCCUCUUUCACGUGCGCGUGCAAGAGAGAAGUGAACCAGAGAAACACACGUUGGGGUAUAUUACCUGGUA [A22C U55G],0.173
7,GUCCUCUUUCACGUGCGCGUGCAAGAGAGAAGUGAACCAGAGAAACACACGUUGCGGUAUAUUACCUGGUA [A22C U55C],0.247
8,GUCCUCUUUCACGUGCGCGUGGAAGAGAGAGGUGAACCAGAGAAACACACGUUGUGGUAUAUUACCUGGUA [A22G A31G],0.744
9,GUCCUCUUUCACGUGCGCGUGGAAGAGAGACGUGAACCAGAGAAACACACGUUGUGGUAUAUUACCUGGUA [A22G A31C],0.159
10,GUCCUCUUUCACGUGCGCGUGCAAGAGAGAAGUGAACCAGAGAAACACUCGUUGUGGUAUAUUACCUGGUA [A22C A49U],0.204
11,GUCCUCUUUCACGUGCGCGUGCAAGAGAGAAGUGAACCAGAGAUACACACGUUGUGGUAUAUUACCUGGUA [A22C A44U],0.221
12,GUCCUCUUUCACGUGCGCGUGCAAGAGAGAAGUGAACCAGAGAAACACACGUUGUGGUAUAUUACUUGGUA [A22C C66U],0.649
13,GUCCUCUUUCACGUGCGCGUGCAAGAGAGAAGUGAACCAGAGAAACACACGUUGUGGUAUAUUACAUGGUA [A22C C66A],0.216
14,GUCCUCUUUCACGUGCGCGUGCAAGAGAGAAGUGAACGAGAGAAACACACGUUGUGGUAUAUUACCUGGUA [A22C C38G],0.215
15,GUCCUCUUUCACGUGCGCGUGCAAGAGAGAAGUGAACUAGAGAAACACACGUUGUGGUAUAUUACCUGGUA [A22C C38U],0.552
16,GUCCUCUUUCACGUGCGCGUGCGAGAGAGAAGUGAACCAGAGAAACACACGUUGUGGUAUAUUACCUGGUA [A22C A23G],0.779
17,GUCCUCUUUCACGUGCGCGUGCCAGAGAGAAGUGAACCAGAGAAACACACGUUGUGGUAUAUUACCUGGUA [A22C A23C],0.947
18,GUCCUCUUUCACGUGCGCGUGCUAGAGAGAAGUGAACCAGAGAAACACACGUUGUGGUAUAUUACCUGGUA [A22C A23U],0.932
19,GUCCUCUUUCACGUGCGCGUGCAAGAGAGAAGUGAACCAGGGAAACACACGUUGUGGUAUAUUACCUGGUA [A22C A41G],0.704
20,GUCCUCUUUCACGUGCGCGUGCAAGAGACAAGUGAACCAGAGAAACACACGUUGUGGUAUAUUACCUGGUA [A22C G29C],0.0774
21,GUCCUCUUUCACGUGCGCGUGCAAGAGAGAAGUGAACCAGAGAAACACACUUUGUGGUAUAUUACCUGGUA [A22C G51U],0.919
22,GUCCUCUUUCACGUGCGCGUGCAAGAGAGAAGUGAACCAGAGAAACACACGUUGUGGUAUAUUGCCUGGUA [A22C A64G],0.467
23,GUCCUCUUUCACGUGCGCGUGCAAGAGAGAAGUGAACCAGAGAAACACACGUUGUGGUAUAUUACCAGGUA [A22C U67A],0.195
24,GUCCUCUUUCACGUGCGCGUGCAAGAGAGAAGUGAACCAGAGAAACACACGUUGUGGUAUAUUACCCGGUA [A22C U67C],0.196
